From patent US20240101692A1 (CEMM FORSCHUNGSZENTRUM F R MOLEKULARE MEDIZIN, published 2024)

T1: Flag-mouse APRIL (mouse, UniProt Q9D777 96-241, limits assumed)
T1 construct: Denatured in the assay (SDS-PAGE and Western blot)
T1 sequence (looked up): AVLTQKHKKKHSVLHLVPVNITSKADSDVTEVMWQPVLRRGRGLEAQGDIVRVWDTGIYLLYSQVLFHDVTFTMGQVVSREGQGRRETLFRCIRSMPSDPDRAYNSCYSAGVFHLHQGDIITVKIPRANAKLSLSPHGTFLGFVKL

T2: Fc-hAPRIL WT (ps1307) (human, UniProt O75888 115-250)
T2 construct: APRIL residues are counted from Met18; also called Fc-APRIL-ps1307
T2 sequence: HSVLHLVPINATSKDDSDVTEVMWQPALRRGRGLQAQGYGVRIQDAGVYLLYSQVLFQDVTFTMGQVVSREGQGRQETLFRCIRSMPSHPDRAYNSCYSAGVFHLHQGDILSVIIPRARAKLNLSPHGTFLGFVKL

T3: Fc-hAPRIL C-terminal truncation ps4185 (aa 98-232) (human, UniProt O75888 115-249)
T3 construct: also called Fc-APRIL-ps4185
T3 sequence: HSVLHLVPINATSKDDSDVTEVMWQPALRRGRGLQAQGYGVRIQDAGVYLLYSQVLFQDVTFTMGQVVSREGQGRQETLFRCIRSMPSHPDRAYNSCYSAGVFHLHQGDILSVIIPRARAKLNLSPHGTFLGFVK

T4: Fc-hAPRIL C-terminal truncation ps4186 (aa 98-231) (human, UniProt O75888 115-248)
T4 construct: also called Fc-APRIL-ps4186
T4 sequence: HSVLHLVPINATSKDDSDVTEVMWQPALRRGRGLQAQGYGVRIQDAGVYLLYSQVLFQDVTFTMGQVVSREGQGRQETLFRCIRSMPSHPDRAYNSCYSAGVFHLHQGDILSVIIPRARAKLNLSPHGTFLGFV

T5: Fc-hAPRIL C-terminal truncation ps4187 (aa 98-230) (human, UniProt O75888 115-247)
T5 construct: also called Fc-APRIL-ps4187
T5 sequence: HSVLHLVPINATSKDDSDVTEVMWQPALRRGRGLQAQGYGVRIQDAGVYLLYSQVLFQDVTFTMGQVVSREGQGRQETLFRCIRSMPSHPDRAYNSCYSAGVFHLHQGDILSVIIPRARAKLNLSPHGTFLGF

T6: Fc-hAPRIL C-terminal truncation ps4188 (aa 98-229) (human, UniProt O75888 115-246)
T6 construct: also called Fc-APRIL-ps4188
T6 sequence: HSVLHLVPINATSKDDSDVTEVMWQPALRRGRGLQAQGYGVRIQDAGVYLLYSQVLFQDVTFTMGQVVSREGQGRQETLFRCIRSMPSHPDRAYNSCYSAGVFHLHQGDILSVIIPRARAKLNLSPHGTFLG


Assays:
[1] = target: heparan sulfate proteoglycan 2 (human, UniProt P98160 22-4391); assay: confocal microscopy of human coronary artery specimens stained with Aprily 2 and anti-HSPG2
[2] = target: T1, Flag-mouse APRIL; assay: Western blot of 50 ng Flag-mAPRIL after SDS-PAGE
Protocol: 50 ng of Flag-mouse APRIL “m” or Flag-human APRIL “h” were analyzed by SDS-PAGE on a 12% acrylamide gel, followed by Western blotting with the indicated anti-APRIL antibodies at 1 μg/ml, followed by HRP-coupled anti-mouse secondary reagent, or with a biotinylated anti-Flag antibody (M2-biot) followed by HRP-coupled streptavidin. The micration of molecular weight markers (in kDa) are indicated on the left-hand side.

[3] = target: T2, Fc-hAPRIL WT (ps1307); assay: sandwich ELISA on supernatant of transfected cells, capture Aprily5, detection Aprily 1-biot
[4] = target: T3, Fc-hAPRIL C-terminal truncation ps4185 …; assay: as above
[5] = target: T4, Fc-hAPRIL C-terminal truncation ps4186 …; assay: as above
[6] = target: T5, Fc-hAPRIL C-terminal truncation ps4187 …; assay: as above
[7] = target: T6, Fc-hAPRIL C-terminal truncation ps4188 …; assay: as above
[8] = target: T2, Fc-hAPRIL WT (ps1307); assay: sandwich ELISA on supernatant of transfected cells, capture Aprily5, detection Aprily2-biot
[9] = target: T3, Fc-hAPRIL C-terminal truncation ps4185 …; assay: as above
[10] = target: T4, Fc-hAPRIL C-terminal truncation ps4186 …; assay: as above
[11] = target: T5, Fc-hAPRIL C-terminal truncation ps4187 …; assay: as above
[12] = target: T6, Fc-hAPRIL C-terminal truncation ps4188 …; assay: as above

| binding result [1] | binding result [2] | binding result [3] | binding result [4] | binding result [5] | binding result [6] | binding result [7] | binding result [8] | binding result [9] | binding result [10] | binding result [11] | binding result [12] | Binder |
| --- | --- | --- | --- | --- | --- | --- | --- | --- | --- | --- | --- | --- |
| binds | – | – | – | – | – | – | – | – | – | – | – | APRIL in human arteries (ligand, Endogenous protein in tissue sections) AVLTQKQKKQHSVLHLVPINATSKDDSDVTEVMWQPALRRGRGLQAQGYGVRIQDAGVYLLYSQVLFQDVTFTMGQVVSREGQGRQETLFRCIRSMPSHPDRAYNSCYSAGVFHLHQGDILSVIIPRARAKLNLSPHGTFLGFVKL |
| – | no binding (tested: 1 µg/ml) | binds | binds | binds | binds | binds | – | – | – | – | – | Aprily 1 (antibody, V domains shown, Anti-human APRIL monoclonal antibody; Used biotinylated as detection antibody in some ELISAs; also called Aprily 1-biot) VH: QIQLVQSGPELKKPGETVRISCKASGYNFKTSGMSWVKQAPGKGLKWMGWIDTYAGVPTYTDDFKGRFVFSLETSATTAFLQINNLKNEDTGTYFCAREPGTDNWGQGTSLTVSS VL: not shown |
| – | no binding (tested: 1 µg/ml) | – | – | – | – | – | binds | binds | binds | binds | binds | Aprily 2 (antibody, V domains shown, Anti-human APRIL monoclonal antibody; Used coupled to beads for depletion and biotinylated for detection; also called Aprily 2-biot) VH: QIQLVQSGPELKKPGETVRISCKASGYTFKTSGMSWVKQAPGKGLKWMGWIDAYAGIPTYTDDFKGRFAFSLDTSATTAFLQINNLKNEDTGTYFCAREPGTDNWGQGTSLTVSS VL: not shown |
